Experimental findings from a protein production outcome set (Wang et al. 2014) are described below.

This data set is described as follows: label from the status in PepcDB records.
On to “MNNRKKNIQYLVYSKVIYRIGDVMFDFANNTFLAGLNPASLSLVAVYQSLESVIGVLFNLFGGVIADSFKRKKIIITTNILCGTACLVLSFLTKEQWLVYAIVLTNVILAFMSAFSSPSYKAFTKEIVKKDSISQLNSLLETTSTVIKVTVPMVAIFLYKLLGIHGVLLLDGLSFLIAALLISFILPVNDEVVIKEKVTIREIFNDLKIGFKYVYSHKSIFIITVLSALVNFFLAAYNLLLPYSNQMFGEISTGLYGTFLTAEAIGGFIGAILSGFVNKELSSMRLILFLSLSGLMLMLAPPFYIMFHNAIILALSPALFSLFLSIFNIQFFSLVQKDVDNDFLGRVFGIIFTITILFMPIGTGFFSVALNPNNSFNLFIIGSCITTLSLVFRILFKKYNIR”, for which the protein production result is on record as “failed”.

“MPALCSTVQTLEKLAKDDVSSLALLGRSVMHDNALTSRILRVANSAIYHKGSTQISTVSRAAIVLGFDAVRNICITAQLLSSLLESKNLAPSVYQRLIKLMAKAFQAAMLTRMMLSDYDDDIQEEAFIACLLFHIGESAFWSIGGEFTETLDSQLTECETSADERSLIRETIGTSFSQLTQSIARHWGLGELLIQAVNYPDDPRPEIRSIFLADKLCDTLSVATPDKNDLEKYINQAANFTGLDETEFTLKMQRCTKATHKLAEAYGAKVLIDYLPDPQRIDKLEPYLPEAELPIFEANLNVQLVKLRELTAFAINKADFNQIMQTVLEGILEGVGVDRCGVLLLSPSRKQLQPRIMLGRDAEEMKRQFIIELGDRKGLFPMAMEHKESLWVDSPCAKKWQEQCRELKVQLPESGFLVAPLLVDNKVIGFYYADRGPSERCFAEVDFQAFIHFSQLANVCFTVSLK”: the protein production result was “failed”.

On to “MTAMSPEQSRAIAKKLAFWATLACLLAVVVIMLGAWTRLVHAGLGCPDWPGCYGFLTVPQDETRIAIANARFPETPVDVSKGWPEMIHRYAAGTLGLLVFGLAIASVRKRRAGLPVKLPLFIAGFIVLQAAFGMWTVTLKLWPQVVALHLLGGFTTLSLLLLLTLRLRRRARESEAPRPAMAASLARLRPWLYGGLLLVIAQIALGAWTAANYAAVACTDLPTCQGQWWPEGMDFQHGFDITQHVGPNYLGGQLTSDGRVAIHVSHRLGAVLVLGYLAILLGLLWRQRAQSGLDRAIALVGGALVLQFCLGLTNVWLHIPLIIAVAHNAMGAGLLLSMVHLIWRHHQLALPALSPAPHTTTINREVTA”, for which the protein production result is listed as “failed”.

Consider “MSSPKISIIIPVYMAESYLHRCVDSIITQTFTDWELLLVDDGSPDHSGELCEKYASAYKSRIKAFHKPNGGVASAREFGMQQARGEYSIHVDPDDWIDSNTLEELYQQAVKEQADMVICDFMMEYPNRQIHNCQKPQLLDSSSFMHQLLQQERHGSLCNKLIRTELYHKYQLHFPEKMICWEDLYICCSILLHGCKLAYVPHALYHYDFYTNDNSMVRHTDMRGLQAQIDFCRLMQAKISPEYLPELNELKGITLITAFRNQLLNEQAIRSLFPEINDWYVTRYGHDYEKSNYYGLTLVLRGYNFKTARRRMFVAKFLVQIKNKITRMLLEHHHHHH”, for which the protein production result was “not failed”.

Turning to “MTTPPLRIGLIGAGYIAAWHADALRAVPGVKLTAVCDPNMDLAEGLAAAHGARAFGDLDDLIGAGLCDGVHILTPPDLHHPLALHCLRAGLHVLVEKPVALNAAQTQEIEDAARAANRRFHAGHNFLGLPSYTRLKREIRRGALGRVSGAEIRWCYPFGPLRAGPFGIWPLRDTRNLMLEFGPHLMSLVIDLFGLPEIEHVALSKPVALPGAGTRPQGWRILARAGEVELVLILSLVETADDRSVTIRGSSARARLDLAADTLVIDAENTADLVANPLLRQLSLARQHLVQGSVNAARQLTSFNRKSPYALSFRGLANGIWEPLAQNAPADPRWSGSSAVAVMTALDAVLERVDWPAPVPASPSRKPAPSAMVIGGTGFIGRALTRELVARGSDVRVISRGRQGSFADLPDQVETVSLSLRDTEGLARAMAGIDTVYNLARSTDSSWEDCLQNDVAVAEGIGKAALAAGVRRLVYTGTIASFDMSDPAATITDATPLPDEMDERNLYARSKAECERRLMALHRQSALPLVIARPGIVLGAGGPLQHWGIGRWHGAGAVRLWGNGRNPLPFVLIGDCVDGLIRCAEAEGIEGRAFNLVGPPILSARDYFDAIHDRLGARIRVSGGNLSLMYAADWVKFQLKTRVLGRSGLTRPSRADWLSRAHQSRFDISGARSALGWHPVSDADAFLTNAVDEAGLLGF”, the protein production entry is “failed”.
